Laboratory results: the nanobody polyreactivity screen of Harvey et al. (2022)

Assay: yeast display, Sf9 membrane polyspecificity reagent, FACS + sequencing; frameworks hold sequencing errors
How it was run: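 After 36–48 hours of galactose induction, yeast (Saccharomyces cerevisiae BJ5465) displaying a synthetic nanobody library were stained at 4 °C for 1 hour with 10% biotinylated, detergent-solubilized Sf9 membrane reagent. Streptavidin microbeads enriched the stained cells before FACS sorting into low and high (top ~1%) gates on anti-HA and streptavidin fluorescence. Each clone's polyreactivity label reflects its gate of origin.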

Row | Sequence | polyreactivity (PSR sort gate)
1 | QVKLVESGGGLVQAGGSLRLSFAASGSIFFIYAMGWYRQETGKERELVASINSGGTTSNADSVKGRFTISRDNAKNTVYLQLNSLKPADTAVYYCATRGIVGILDSLSEEYYYWGQGTQVSVSS | low polyreactivity
2 | QVKLVESGGGLVQAGGSLRLSSDASGSIFLYNAMGWYRQAPGKERELVADISWSGGSTYYADSVKGRFTISRVNEKYTVYLQMNSLKPEDTAVYYCNAVVYWFSTSYVYTYDYWGQGTQVTVSS | high polyreactivity
3 | QVKLVESGGGLVQAGRSLRLSFAASGSTFLYYGMGWYRQAPGKERELVATITWRGGRTYYADSVKGRFTISRDNAKNTVYLQMNSLKPEDTAVYYCAARVVGSYRKPYPYGLYYWGQGTQVTVSS | high polyreactivity
4 | QVKLVESGGRLVQAGGSLRLSCAASGRNFYNYAMGWYRQAPGKERELVAAISKSGGRTYYADSVKGRFTISRDNAKNTVYLQMNSLKPEDTAVYYCAAEPFIPDQSRYYYWGQGSQVTVSS | high polyreactivity
5 | QVKLVESGGRLVQAGGSLRLSCAASGSIFYYYAMGWYRQAPVKERELVAAITNYADSVKGRFTISRDNAKNTVYLQMNSLKPEDTAVYYCAADWWRVEMDYWGQGTQVTVSS | low polyreactivity
6 | QVKLVESGGVLVQAGGSLRLSCAASGRIFGTYAMGWYRQAPGKERELVASISYSDGSTYADSVKGRFTISRDNAKNTVYLQMNSLKPEDTAVYYCAADVYYYAQCEDGYWGQGTQVTVSS | low polyreactivity
7 | QVKLVESGRGLVQAGGSLRVSCAASGRIFQRYVMGWYRQAPGKERELVAAITWSGGSTYADSVKGRFTISRDNAKNTVYLQMNSLKTEDTAVYYCAARVPYNYWGMYYLYDYWGQGTQVTVSS | high polyreactivity
8 | QVKLVESGVGLVKAGVSLRLSSAASGFTFYSYAMGCYRQAPGKESELVAAISWSGSRTYYADSVKGRFTISRDNAKNTVYLQMNSLKPEDTGVYYCAAYSYVRYSSWSDYWGLGTQVTVSS | high polyreactivity
9 | QVKLVESRGGLVQAGGSLRLSCAASARIFVHNAKGCYRQAPGKAREFDAAITRRGGSTYADSVKGRFRISRDNAKNTVYLQMTSLKPEDTAVYYCNAESYYGIFRYNYDYWGQGTQVTVSS | high polyreactivity
10 | QVKLVETGGGLVQAGGSLRLSCAASGFIFYKYAMGWYRQAPGKERELVASITSGGITNYADSVKGRFTISRDNAKNTVYLQMNSLKPVDTAVYYCNVRWYSRWLITTDYNYWGQGTQVTVSS | high polyreactivity
11 | QVKRVESGGGLVQAGGSLRLSCAASGIMFSPNDMGRFRQGPGKERELVARITTDGSSTYYADSVKGRFTISRDNAKNTVYLQINSLKPEDTAVYSCNADQLWYSLFDYWGQGTLVTVSS | high polyreactivity
12 | QVLIVESGGGLVQAGGSLRLSCADSGLTLAHYTMGWYRQSPGKERELVAAITFSGGRTYYADSVKGRFTISRDNAKNTVYLQMNSLKPEDTAVYYCNDEYQWGGYGYDYWGQGTQVTVSS | low polyreactivity
13 | QVLLEESGGGLVQAGGSLRLSCAASGRIFLRKVMGWYRQAPGKERELVAAISLSGASTYYADSVKGRFTISRDNAKNTVYLQMNCLKPEDTAVYYCAADITILYDYWGQGTQVTVSS | low polyreactivity
14 | QVLLQESGGGLVQAGGSLRLSCAASGNIFSAGGMGWYRQAPVNERELVAGIGTGTSTNYADSVKGRFTISRDNAKNTVYLQMNILKPEDTAVYYCAAAYYSGLSHWYWGQGTQVTVSS | low polyreactivity
15 | QVLLQESGGGLVQAGGSLRLSCAASGNIFSAGGMGWYRQAPVNERELVAGIGTGTSTNYADSVKGRFTISRDNAKNTVYLQMTSLKPEVTAVYYCAAAYYSGLSHWYWGQGTQVTVSS | low polyreactivity
16 | QVLLQESGGGLVQAGGSLRLSCAASGNIFSAGGMGWYRQAPVNERELVAGIGTGTSTNYADSVKGRFTISRDNANNTVYLQMNSLKPEDTAVYYCAAAYYSGLSHWYWGQGTQVTVSS | low polyreactivity

Row | Sequence | polyreactivity (PSR sort gate)
17 | QVLLQESGGGLVQAGGSLRLSCAASGSIFLFYTMGWSRQAPVKEREFVAGITLGTTTYNADSVKGRFTISRDNVKNTVYLQMNSLKPEDTAVYYCAVAVGHYTEFWYWGQGTQVTMSS | high polyreactivity
18 | QVLLQESGGGLVQAGGSLRLSCAASGSIFLFYTMGWYRQAPVKEREFVAGITLGTTTYNADSVKGRFTISRDNVKNTVYLQMNSLKPEATAVYYCAVAVGHYTVFWYWGQGTQVTMSS | high polyreactivity
19 | QVLLQESGGGLVQAGGSLRLSCAASGSIFLFYTMGWYRQAPVKEREFVAGITLGTTTYNADSVKGRFTISRDNVKNTVYLQMNSLKPEDTAVYYFAVAVGHYTEFWYWGQGTQVTMSS | high polyreactivity
20 | QVLLQESGGGLVQAGGSLRLSCAASGTISTDIRMGLYSLAPGKAREFVASIDGCSTTYYADSVKGRFTISRDNAKNTVYLKMNSLKPVDTAMYYCAAREATEFYLYYWGQGTQVTVSS | low polyreactivity
21 | QVLLQESGGGLVQAGGSLRQSCAASGNIFSAGGMGWYRQAPVNERELVAGIGTGTSTNYADSVKGRFTISRDNAKNTVYLQMNSLKPEDTAVYFCAAAFYSGLSHWYWGQGTQVTVSS | low polyreactivity
22 | QVLLQESGGLLQAGCSLRMSCAASGSISTALSMVWYRQAPGKERELVATISDGASTNYADSVKGRFTISRVNAKNTVYLQMNSLKPEDTEVYYCAAQSQYRPDHRYWGQGTQVTVSS | high polyreactivity
23 | QVLLVEAGGGLVQAGGSLRLSCAASGRIFRRYAMGWYRQAPGKERELVAAISSGGGSTYYADSVKGRFTISRDNAKNTVYLQMNSLKPEDTAVYYCNTDFYYDDVSQAHDYWGQGTQVTVSS | high polyreactivity
24 | QVLLVESAVGLVQAVGSLRLSCAASGSICYTNGMGWYRQAPGNERELVASITRSGGSTYYADSVKGRFTISRDNAKNSVYLQMNRLKPEDTAVYYCATSWGYRGLWGLRFDYWGQGTQVSVSS | low polyreactivity
25 | QVLLVESGGGFVQAGGSLRLSCSASGSIFSPYTMGWYRQATGKERELVAAISRGGNTYYADSVKGRFTISRDNAKNTVYLQMNSLKPEDTAVYYCAARAKYDRRTDGTSGYDYWGQGTQVTVSS | low polyreactivity
26 | QVLLVESGGGLVQAGGILRLSCAASGLTFTYYAMGWYRQAPGKERELVAAISRCGTGTYYADSVKGRFTISRDNAKNTVYLHMNSLKPEDTAVYYCATLPGRYFTANEYWGQGTQVTVSS | high polyreactivity
27 | QVLLVESGGGLVQAGGILRLSCAASGNILGYNAMGWSRQAPGKERELVAAISWIGGSTYYADSVKGRFTISRDNAKNTVYLQMNSLKQEDTAVYYCASRYRTYFTYEYWGQVTQVTVSS | low polyreactivity
28 | QVLLVESGGGLVQAGGSHRLSCAASGITIRFYAMGWYRQAPGKEREFHAAISRSGSTYYADSVKGRFTISRDNAKNTVYLHLNSVKPEDTAVYYCAADSYRSAQGLDYWGQGTQVTVSS | high polyreactivity
29 | QVLLVESGGGLVQAGGSLRLSCAASGFTFGVYAMRWYRQAPGKERELVAAISTTVGSTYYADSVKGRFTISRDNAKNTVYLQMNSLKPEDTAVYYCHYPYDYWGQATQVTVSS | low polyreactivity
30 | QVLLVESGGGLVQAGGSLRLSCAASGLTFRYYAMGWYRQAPGKERELVAAITSGGSTYYADSVKGRFTISRDNAKNTVYLQMNSLKPEDTAVYYCNKLLGRTVRHDYWGQGTQVTVSS | high polyreactivity
31 | QVLLVESGGGLVQAGGSLRLSCAASGRTFRGNAMGWYRQAPGKERELVAAISRSGGTTYYADSVKGRFTISRYNAKNTVYLQMNSLKPEDTAVYYCNRGWATWHGPDDYWGQGTQVTVSS | high polyreactivity
32 | QVLLVESGGGLVQAGGSLRLSCAASGRTFYNYSMGWYRQAPGKERELVAAISGGGTTNYADTVKGRFTISRDNAKNTVYLQMNSLKPEDTAVYSCNAARTRWATGYDYWGQGTQVTVSS | low polyreactivity
